Laboratory results reported in US20250145720A1.

Tests used:
[1] = molecular target: mouse FcRn, biotinylated extracellular domain (FcRnECDHis-B2M-BIO) (mouse) (UniProt Q61559); assay: ELISA on coated mouse FcRn at pH 6.0, apparent affinity
[2] = molecular target: human complement component C1q (human) (UniProt P02745); assay: FACS, C1q on antibody-opsonized Daudi cells, Exp. 11
[3] = molecular target: human complement component C1q (human) (UniProt P02745); assay: FACS, C1q on antibody-opsonized Daudi cells, Exp. 5
[4] = molecular target: human complement component C1q (human) (UniProt P02745); assay: cell-based or functional assay
[5] = molecular target: human complement component C1q (human) (UniProt P02745); assay: FACS, C1q on antibody-opsonized Daudi cells, average
[6] = molecular target: human complement component C1q (human) (UniProt P02745); assay: FACS, C1q on antibody-opsonized Daudi cells, ranking table
[7] = molecular target: human complement component C1q (human) (UniProt P02745); assay: FACS, C1q on antibody-opsonized Raji cells, Exp. 2
[8] = molecular target: human complement component C1q (human) (UniProt P02745); assay: FACS, C1q on antibody-opsonized Raji cells, Exp. 3
[9] = molecular target: human complement component C1q (human) (UniProt P02745); assay: FACS, C1q on antibody-opsonized Raji cells, Exp. 1
[10] = molecular target: human complement component C1q (human) (UniProt P02745); assay: FACS, C1q on antibody-opsonized Daudi cells, Exp. 2
[11] = molecular target: human complement component C1q (human) (UniProt P02745); assay: FACS, C1q on antibody-opsonized Daudi cells, Exp. 1
[12] = molecular target: human complement component C1q (human) (UniProt P02745); assay: FACS, C1q on antibody-opsonized Daudi cells, Exp. 3
[13] = molecular target: human complement component C1q (human) (UniProt P02745); assay: C1q ELISA, antibody coated in dilution series, 3% pooled human serum
[14] = molecular target: human complement component C1q (human) (UniProt P02745); assay: FACS, C1q on antibody-opsonized Daudi cells, Exp. 4
[15] = molecular target: human complement component C1q (human) (UniProt P02745); assay: FACS, C1q on antibody-opsonized Daudi cells, Exp. 6
[16] = molecular target: human complement component C1q (human) (UniProt P02745); assay: FACS, C1q on antibody-opsonized Raji cells, average
[17] = molecular target: human complement component C1q (human) (UniProt P02745); assay: FACS, C1q on antibody-opsonized Daudi cells, Exp. 10
[18] = molecular target: human complement component C1q (human) (UniProt P02745); assay: FACS, C1q on antibody-opsonized Daudi cells, Exp. 9
[19] = molecular target: human complement component C1q (human) (UniProt P02745); assay: FACS, C1q on antibody-opsonized Daudi cells, Exp. 8
[20] = molecular target: human complement component C1q (human) (UniProt P02745); assay: FACS, C1q on antibody-opsonized Daudi cells, ranking table; no reliable fit
[21] = molecular target: human complement component C1q (human) (UniProt P02745); assay: FACS, C1q on antibody-opsonized Daudi cells, Exp. 7

mouse FcRn, biotinylated extracellular domain (FcRnECDHis-B2M-BIO) (mouse), sequence (Q61559 22-297): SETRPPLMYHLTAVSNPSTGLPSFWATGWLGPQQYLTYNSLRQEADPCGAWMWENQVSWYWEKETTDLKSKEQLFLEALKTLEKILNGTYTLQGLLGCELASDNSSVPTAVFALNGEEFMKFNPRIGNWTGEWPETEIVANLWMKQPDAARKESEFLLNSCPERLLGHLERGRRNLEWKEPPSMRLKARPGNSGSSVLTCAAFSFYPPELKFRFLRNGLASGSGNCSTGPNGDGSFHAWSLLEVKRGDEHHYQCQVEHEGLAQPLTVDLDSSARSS
human complement component C1q (human), sequence (P02745 23-245 limits assumed, chain 1 of 3): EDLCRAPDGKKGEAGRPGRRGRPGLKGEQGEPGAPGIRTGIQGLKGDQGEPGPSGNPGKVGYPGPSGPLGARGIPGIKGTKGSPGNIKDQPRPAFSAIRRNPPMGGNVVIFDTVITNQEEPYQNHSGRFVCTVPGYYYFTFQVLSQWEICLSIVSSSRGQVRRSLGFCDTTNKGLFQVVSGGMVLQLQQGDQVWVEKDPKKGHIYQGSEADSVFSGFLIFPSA
human complement component C1q (human), sequence (P02746 28-253 limits assumed, chain 2 of 3, further chain): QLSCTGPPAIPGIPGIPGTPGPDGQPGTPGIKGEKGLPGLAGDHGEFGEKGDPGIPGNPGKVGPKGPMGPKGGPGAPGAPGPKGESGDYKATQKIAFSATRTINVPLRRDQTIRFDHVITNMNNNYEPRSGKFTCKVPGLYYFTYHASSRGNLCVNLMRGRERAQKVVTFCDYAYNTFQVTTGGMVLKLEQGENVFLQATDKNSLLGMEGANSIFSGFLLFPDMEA
human complement component C1q (human), sequence (P02747 29-245 limits assumed, chain 3 of 3, further chain): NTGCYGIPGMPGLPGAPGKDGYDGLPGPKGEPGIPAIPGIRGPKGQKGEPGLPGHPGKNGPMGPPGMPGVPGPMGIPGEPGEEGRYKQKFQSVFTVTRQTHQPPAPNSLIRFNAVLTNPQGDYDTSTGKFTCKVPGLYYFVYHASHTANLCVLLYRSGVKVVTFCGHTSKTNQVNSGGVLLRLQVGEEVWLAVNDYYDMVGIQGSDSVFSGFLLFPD

| EC50 [1] | CH50 (C1q concentration giving 50% lysis), CDC on Raji cells in C1q-depleted serum [4] | EC50 of CDC on Daudi cells, 20% normal human serum [4] | EC50 of CDC on Raji cells, 20% normal human serum [4] | Kd [5] | Kd [6] | Substance | other results |
| --- | --- | --- | --- | --- | --- | --- | --- |
| – | 0.63 µg/mL | 0.42 µg/mL | 1.72 µg/mL | 10.7 nM | 10.7 nM | IgG1-7D8-Q311A (antibody) | Kd [7]: 10.1 nM; Kd [8]: 12.2 nM; Kd [9]: 4.1 nM; Kd [10]: 13 nM; Kd [11]: 14.3 nM |
| – | > 30 µg/mL | 2.34 µg/mL | 21.5 µg/mL | 361 nM | 361 nM | IgG1-7D8-K439E (antibody) | Kd [2]: 304 nM; Kd [15]: 418 nM |
| – | > 30 µg/mL | 1.88 µg/mL | 16.6 µg/mL | 468 nM | 468 nM | IgG1-7D8-Y436D (antibody) | Kd [2]: 504 nM; Kd [15]: 431 nM |
| – | > 30 µg/mL | 3.44 µg/mL | 22.6 µg/mL | 118 nM | 118 nM | IgG1-7D8-H433A (antibody) | Kd [7]: 85 nM; Kd [8]: 84 nM; Kd [12]: 45.2 nM; EC50 [13]: 3.33 µg/mL; Kd [9]: 125 nM; Kd [10]: 76.1 nM; Kd [11]: 168 nM; Kd [14]: 181 nM; Kd [16]: 97.9 nM |
| – | – | – | – | 7.2 nM | – | Ofatumumab (antibody) | Kd [17]: 12.8 nM; Kd [18]: 12.5 nM; Kd [15]: 5.4 nM; Kd [19]: 2.7 nM |
| 0.28 µg/mL | – | – | – | – | – | IgG1-005-P247G (antibody) | – |
| 0.13 µg/mL | – | – | – | – | – | IgG1-005-E345Y (antibody) | – |
| – | 1.33 µg/mL | 0.48 µg/mL | 1.58 µg/mL | – | – | IgG1-7D8-K439E + IgG1-7D8-S440K mix | Kd [15]: 3.6 nM |
| – | 0.09 µg/mL | 0.33 µg/mL | 1.34 µg/mL | 2.6 nM | 2.6 nM | IgG1-7D8-K439E/S440K (antibody) | Kd [17]: 2.9 nM; Kd [15]: 4.6 nM; Kd [21]: 1.63 nM; Kd [19]: 1.01 nM |
| – | 16.1 µg/mL | 1.77 µg/mL | 28.9 µg/mL | 41.3 nM | 41.3 nM | IgG1-7D8-I253Y (antibody) | Kd [7]: 45.6 nM; Kd [8]: 46.2 nM; Kd [12]: 21.1 nM; EC50 [13]: 2.21 µg/mL; Kd [9]: 24.3 nM; Kd [10]: 37 nM; Kd [11]: 58.5 nM; Kd [14]: 48.7 nM; Kd [16]: 38.7 nM |
| 0.1 µg/mL | – | – | – | – | – | IgG1-005-E345K (antibody) | – |
| – | 21.2 µg/mL | 1.77 µg/mL | – | 42.6 nM | 42.6 nM | IgG1-7D8-N434A (antibody) | Kd [7]: 46.7 nM; Kd [8]: 35.2 nM; Kd [12]: 28.3 nM; EC50 [13]: 2.12 µg/mL; Kd [9]: 35.9 nM; Kd [10]: 47.8 nM; Kd [11]: 36.7 nM; Kd [14]: 48.7 nM; Kd [16]: 44.9 nM |
| – | > 30 µg/mL | 3.33 µg/mL | > 30 µg/mL | 157 nM | 157 nM | IgG1-7D8-I253D (antibody) | Kd [7]: 172 nM; Kd [8]: 85.2 nM; EC50 [13]: 3.84 µg/mL; Kd [9]: 70 nM; Kd [10]: 176 nM; Kd [11]: 146 nM; Kd [14]: 205 nM |
| 0.12 µg/mL | – | – | – | – | – | IgG1-005-E345Q (antibody) | – |
| – | 0.49 µg/mL | 0.48 µg/mL | 1.54 µg/mL | – | – | IgG1-7D8 (HuMab-7D8, wild type) (antibody) | Kd [17]: 11.8 nM; Kd [8]: 10.9 nM; Kd [2]: 13.3 nM; EC50 [13]: 2.05 µg/mL; Kd [9]: 4.8 nM; Kd [11]: 7.7 nM |
| 0.15 µg/mL | – | – | – | – | – | IgG1-005-E430T (antibody) | – |
| – | > 30 µg/mL | > 30 µg/mL | > 30 µg/mL | – | – | IgG1-7D8-K322A (antibody) | – |
| 0.14 µg/mL | – | – | – | – | – | IgG1-005-E430S (antibody) | – |
| – | 22.5 µg/mL | 2.12 µg/mL | 17.4 µg/mL | 74 nM | 74 nM | IgG1-7D8-G385D (antibody) | Kd [2]: 71 nM; Kd [15]: 77 nM |
| 0.15 µg/mL | – | – | – | – | – | IgG1-005-S440Y (antibody) | – |
| – | > 30 µg/mL | 2.61 µg/mL | 19.5 µg/mL | 717 nM | 717 nM | IgG1-7D8-Q438D (antibody) | Kd [2]: 667 nM; Kd [3]: 767 nM |

Continued, substance first:

| Substance | EC50 [1] | CH50 (C1q concentration giving 50% lysis), CDC on Raji cells in C1q-depleted serum [4] | EC50 of CDC on Daudi cells, 20% normal human serum [4] | EC50 of CDC on Raji cells, 20% normal human serum [4] | Kd [5] | Kd [6] | other results |
| --- | --- | --- | --- | --- | --- | --- | --- |
| IgG1-005 (HuMab 005, wild type) (antibody) | 0.14 µg/mL | – | – | – | – | – | – |
| IgG1-7D8-H310K (antibody) | – | > 30 µg/mL | 3.03 µg/mL | 19.3 µg/mL | 124 nM | 124 nM | Kd [2]: 216 nM; Kd [3]: 32.4 nM |
| IgG1-7D8-H435R (antibody) | – | 0.24 µg/mL | 0.28 µg/mL | 0.61 µg/mL | – | – | Kd [12]: 2.6 nM; EC50 [13]: 1.24 µg/mL; Kd [10]: 8.7 nM; Kd [14]: 3 nM |
| IgG1-005-S440K (antibody) | 0.11 µg/mL | – | – | – | – | – | – |
| IgG1-7D8-I253A (antibody) | – | 11.2 µg/mL | 0.79 µg/mL | 5.55 µg/mL | 21.5 nM | 21.5 nM | Kd [7]: 25.7 nM; Kd [8]: 20.1 nM; Kd [12]: 16.7 nM; EC50 [13]: 2.56 µg/mL; Kd [10]: 20.4 nM; Kd [11]: 33 nM; Kd [14]: 15.7 nM; Kd [16]: 18.6 nM |
| IgG1-005-E430H (antibody) | 0.11 µg/mL | – | – | – | – | – | – |
| IgG1-005-K439E (antibody) | 0.31 µg/mL | – | – | – | – | – | – |
| IgG1-005-E345R (antibody) | 0.09 µg/mL | – | – | – | – | – | – |
| IgG1-7D8-I253D/H433A (antibody) | – | > 30 µg/mL | 4.77 µg/mL | > 30 µg/mL | 5290 nM | – | Kd [2]: 246 nM; Kd [15]: 10300 nM; Kd [20]: 5290 nM |
| IgG1-7D8-H435A (antibody) | – | 0.96 µg/mL | 0.81 µg/mL | 2.22 µg/mL | – | – | Kd [7]: 9.9 nM; Kd [12]: 5 nM; EC50 [13]: 2.27 µg/mL; Kd [9]: 5.4 nM; Kd [10]: 10.9 nM; Kd [11]: 7.8 nM; Kd [14]: 10.9 nM; Kd [16]: 7.3 nM |
| IgG1-7D8-E345R (antibody) | – | 0.03 µg/mL | 0.04 µg/mL | 0.16 µg/mL | 1.7 nM | 1.7 nM | Kd [17]: 2.7 nM; Kd [21]: 0.17 nM |
| IgG1-005-E345N (antibody) | 0.11 µg/mL | – | – | – | – | – | – |
| IgG1-7D8-E382R (antibody) | – | 0.77 µg/mL | 0.76 µg/mL | 2.96 µg/mL | 2.3 nM | 2.3 nM | Kd [21]: 1.18 nM; Kd [19]: 1.13 nM |
| IgG1-005-E430F (antibody) | 0.11 µg/mL | – | – | – | – | – | – |
| IgG1-7D8-S440K (antibody) | – | > 30 µg/mL | 1.78 µg/mL | 19.5 µg/mL | 109 nM | 109 nM | Kd [2]: 48 nM; Kd [15]: 170 nM |
| IgG1-005-E430G (antibody) | 0.13 µg/mL | – | – | – | – | – | – |
